Where no end group is shown, it is not given here. [ ]: non-standard residue; d: D form. The star is where a group is joined. 1Nal = N[C@@H](Cc1cccc2ccccc12)C(=O)O; Palmitoyl = CCCCCCCCCCCCCCCC(=O)*; Myristoyl = CCCCCCCCCCCCCC(=O)*; NMeA = CN[C@@H](C)C(=O)O; Nle = CCCC[C@H](N)C(=O)O
T1: human PrRP receptor, GPR10, transfected in CHO cells (human, UniProt P49683 1-370)
T1 construct: whole, on cells; also called human GPR10 receptor; the human receptor GPR10 in CHO cells
T1 sequence (looked up): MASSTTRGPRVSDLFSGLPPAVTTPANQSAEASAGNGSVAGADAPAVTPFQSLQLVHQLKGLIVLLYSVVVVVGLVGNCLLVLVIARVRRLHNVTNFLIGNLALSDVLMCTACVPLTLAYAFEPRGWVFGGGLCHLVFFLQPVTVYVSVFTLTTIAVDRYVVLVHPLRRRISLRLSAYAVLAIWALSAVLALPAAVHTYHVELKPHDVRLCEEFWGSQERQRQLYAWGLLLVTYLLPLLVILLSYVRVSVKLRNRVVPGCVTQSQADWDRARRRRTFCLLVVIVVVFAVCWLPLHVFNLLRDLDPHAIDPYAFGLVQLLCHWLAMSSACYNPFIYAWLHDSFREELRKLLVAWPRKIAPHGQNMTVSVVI

T2: rat PrRP receptor in RC-4B/C cells (rat, UniProt Q64121 1-370)
T2 construct: whole, on cells; also called the rat receptor; GPR10
T2 sequence (looked up): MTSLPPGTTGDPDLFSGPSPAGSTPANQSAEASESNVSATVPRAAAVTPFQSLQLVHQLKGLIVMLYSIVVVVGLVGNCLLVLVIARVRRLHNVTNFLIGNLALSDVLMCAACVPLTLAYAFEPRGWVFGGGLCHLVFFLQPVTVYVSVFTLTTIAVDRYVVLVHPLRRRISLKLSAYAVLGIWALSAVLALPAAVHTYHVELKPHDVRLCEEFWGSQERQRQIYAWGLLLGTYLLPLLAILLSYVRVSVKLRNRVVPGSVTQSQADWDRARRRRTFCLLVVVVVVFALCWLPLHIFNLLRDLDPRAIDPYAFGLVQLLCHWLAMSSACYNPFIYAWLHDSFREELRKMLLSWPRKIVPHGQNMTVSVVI


Columns and labels:
[1] = biological target: T1, human PrRP receptor, GPR10, transfected …; experiment: competition with 125I-human PrRP31 on CHO cells with transfected human GPR10
Method: CHO cells with transfected human PrRP receptor, GPR10 (Perkin Elmer, USA) were grown on 24-well plates coated with polyethyleneimine. The cells were grown to the optimal density of 40-80 thousand cells per well.
(§1) Plates were incubated for 60 minutes at room temperature. After incubation, the cells were solubilized in 0.1 mol/l solution of NaOH and the radioactivity bound to the cells was counted using a γ-counter. The experiments were performed in duplicate and repeated at least three times.

[2] = biological target: T2, rat PrRP receptor in RC-4B/C cells; experiment: competition with 125I-rat PrRP31 on RC-4B/C cells
Method: The rat pituitary cell line RC-4B/C (ATCC, Manassas, USA) was grown on 24-well plates which had their bottom coated with polyethyleneimine. The cells were grown to the optimal density of 300-450 thousand per well.
as §1
For evaluation of competitive binding experiments, the program Graph Pad Prism Software (San Diego, Calif., USA) was used. A method of nonlinear regression assuming one-site binding was used.

| Binder | Ki [1] [nM] | Ki [2] [nM] |
| --- | --- | --- |
| SRAHQHS[Nle]ETRTPDINPAWYTGRGIRPVGRF-NH2 [analog no. 14] | 1.92 | 1.28 |
| SRAHQHS[Nle]ETRTPDINPAWYTGRGIRPVGR[1Nal]-NH2 [analog no. 21] | 34.5 | 102 |
| TPDINPAWYTGRGARPFGRF-NH2 [analog no. 42] | 583 | 655 |
| Myristoyl-TPDINPAWYTGRGARPFGRF-NH2 (SMILES CCCCCCCCCCCCCC(=O)N[C@H](C(=O)N1CCC[C@H]1C(=O)N[C@@H](CC(=O)O)C(=O)N[C@H](C(=O)N[C@@H](CC(N)=O)C(=O)N1CCC[C@H]1C(=O)N[C@@H](C)C(=O)N[C@@H](Cc1c[nH]c2ccccc12)C(=O)N[C@@H](Cc1ccc(O)cc1)C(=O)N[C@H](C(=O)NCC(=O)N[C@@H](CCCNC(=N)N)C(=O)NCC(=O)N[C@@H](C)C(=O)N[C@@H](CCCNC(=N)N)C(=O)N1CCC[C@H]1C(=O)N[C@@H](Cc1ccccc1)C(=O)NCC(=O)N[C@@H](CCCNC(=N)N)C(=O)N[C@@H](Cc1ccccc1)C(N)=O)[C@@H](C)O)[C@@H](C)CC)[C@@H](C)O) [analog no. 43] | 8.47 | 7.21 |
| Myristoyl-QHSMETRTPDINPAWYTGRGIRPVGRF-NH2 (SMILES CCCCCCCCCCCCCC(=O)N[C@@H](CCC(N)=O)C(=O)N[C@@H](Cc1c[nH]cn1)C(=O)N[C@@H](CO)C(=O)N[C@@H](CCSC)C(=O)N[C@@H](CCC(=O)O)C(=O)N[C@H](C(=O)N[C@@H](CCCNC(=N)N)C(=O)N[C@H](C(=O)N1CCC[C@H]1C(=O)N[C@@H](CC(=O)O)C(=O)N[C@H](C(=O)N[C@@H](CC(N)=O)C(=O)N1CCC[C@H]1C(=O)N[C@@H](C)C(=O)N[C@@H](Cc1c[nH]c2ccccc12)C(=O)N[C@@H](Cc1ccc(O)cc1)C(=O)N[C@H](C(=O)NCC(=O)N[C@@H](CCCNC(=N)N)C(=O)NCC(=O)N[C@H](C(=O)N[C@@H](CCCNC(=N)N)C(=O)N1CCC[C@H]1C(=O)N[C@H](C(=O)NCC(=O)N[C@@H](CCCNC(=N)N)C(=O)N[C@@H](Cc1ccccc1)C(N)=O)C(C)C)[C@@H](C)CC)[C@@H](C)O)[C@@H](C)CC)[C@@H](C)O)[C@@H](C)O, lipidated shortened PrRP31 analog) [analog no. 49] | 6.93 | 0.37 |
| TPDINPAWY[NMeA]SRGIRPVGRF-NH2 (N-terminus assumed; SMILES CC[C@H](C)[C@H](NC(=O)CNC(=O)[C@H](CCCNC(=N)N)NC(=O)[C@H](CO)NC(=O)[C@H](C)N(C)C(=O)[C@H](Cc1ccc(O)cc1)NC(=O)[C@H](Cc1c[nH]c2ccccc12)NC(=O)[C@H](C)NC(=O)[C@@H]1CCCN1C(=O)[C@H](CC(N)=O)NC(=O)[C@@H](NC(=O)[C@H](CC(=O)O)NC(=O)[C@@H]1CCCN1C(=O)[C@@H](N)[C@@H](C)O)[C@@H](C)CC)C(=O)N[C@@H](CCCNC(=N)N)C(=O)N1CCC[C@H]1C(=O)N[C@H](C(=O)NCC(=O)N[C@@H](CCCNC(=N)N)C(=O)N[C@@H](Cc1ccccc1)C(N)=O)C(C)C) [analog no. 40] | 8.72 | 49.4 |

More lines, now with the values ahead:

| Ki [1] [nM] | Ki [2] [nM] | Binder |
| --- | --- | --- |
| 3.44 | 2.94 | [Nle]ETRTPDINPAWYTGRGIRPVGRF-NH2 (N-terminus assumed; SMILES CCCC[C@H](N)C(=O)N[C@@H](CCC(=O)O)C(=O)N[C@H](C(=O)N[C@@H](CCCNC(=N)N)C(=O)N[C@H](C(=O)N1CCC[C@H]1C(=O)N[C@@H](CC(=O)O)C(=O)N[C@H](C(=O)N[C@@H](CC(N)=O)C(=O)N1CCC[C@H]1C(=O)N[C@@H](C)C(=O)N[C@@H](Cc1c[nH]c2ccccc12)C(=O)N[C@@H](Cc1ccc(O)cc1)C(=O)N[C@H](C(=O)NCC(=O)N[C@@H](CCCNC(=N)N)C(=O)NCC(=O)N[C@H](C(=O)N[C@@H](CCCNC(=N)N)C(=O)N1CCC[C@H]1C(=O)N[C@H](C(=O)NCC(=O)N[C@@H](CCCNC(=N)N)C(=O)N[C@@H](Cc1ccccc1)C(N)=O)C(C)C)[C@@H](C)CC)[C@@H](C)O)[C@@H](C)CC)[C@@H](C)O)[C@@H](C)O, shortened PrRP31 analog) [analog no. 46] |
| 4.27 | 2.17 | Palmitoyl-SRAHQHS[Nle]ETRTPDINPAWYTGRGIRPVGR[1Nal]-NH2 [analog no. 23] |
| 2.02 | 3.25 | SRAHQHS[Nle]ETRTPDINPAWYTGRGIRPVGRY-NH2 (N-terminus assumed; SMILES CCCC[C@H](NC(=O)[C@H](CO)NC(=O)[C@H](Cc1c[nH]cn1)NC(=O)[C@H](CCC(N)=O)NC(=O)[C@H](Cc1c[nH]cn1)NC(=O)[C@H](C)NC(=O)[C@H](CCCNC(=N)N)NC(=O)[C@@H](N)CO)C(=O)N[C@@H](CCC(=O)O)C(=O)N[C@H](C(=O)N[C@@H](CCCNC(=N)N)C(=O)N[C@H](C(=O)N1CCC[C@H]1C(=O)N[C@@H](CC(=O)O)C(=O)N[C@H](C(=O)N[C@@H](CC(N)=O)C(=O)N1CCC[C@H]1C(=O)N[C@@H](C)C(=O)N[C@@H](Cc1c[nH]c2ccccc12)C(=O)N[C@@H](Cc1ccc(O)cc1)C(=O)N[C@H](C(=O)NCC(=O)N[C@@H](CCCNC(=N)N)C(=O)NCC(=O)N[C@H](C(=O)N[C@@H](CCCNC(=N)N)C(=O)N1CCC[C@H]1C(=O)N[C@H](C(=O)NCC(=O)N[C@@H](CCCNC(=N)N)C(=O)N[C@@H](Cc1ccc(O)cc1)C(N)=O)C(C)C)[C@@H](C)CC)[C@@H](C)O)[C@@H](C)CC)[C@@H](C)O)[C@@H](C)O, Tyr at position 31 in place of Phe) [analog no. 34] |
| 1.33 | 3.96 | Myristoyl-SRAHQHS[Nle]ETRTPDINPAWYTGRGIRPVGR[1Nal]-NH2 [analog no. 22] |
| 5.92 | 2.61 | QHSMETRTPDINPAWYTGRGIRPVGRF-NH2 (shortened PrRP31 analog) [analog no. 48] |
| 1.73 | 2.14 | TPDINPAWYASRPFRPVGRF-NH2 [analog no. 44] |
| 0.58 | 0.84 | Myristoyl-TPDINPAWYASRPFRPVGRF-NH2 (SMILES CCCCCCCCCCCCCC(=O)N[C@H](C(=O)N1CCC[C@H]1C(=O)N[C@@H](CC(=O)O)C(=O)N[C@H](C(=O)N[C@@H](CC(N)=O)C(=O)N1CCC[C@H]1C(=O)N[C@@H](C)C(=O)N[C@@H](Cc1c[nH]c2ccccc12)C(=O)N[C@@H](Cc1ccc(O)cc1)C(=O)N[C@@H](C)C(=O)N[C@@H](CO)C(=O)N[C@@H](CCCNC(=N)N)C(=O)N1CCC[C@H]1C(=O)N[C@@H](Cc1ccccc1)C(=O)N[C@@H](CCCNC(=N)N)C(=O)N1CCC[C@H]1C(=O)N[C@H](C(=O)NCC(=O)N[C@@H](CCCNC(=N)N)C(=O)N[C@@H](Cc1ccccc1)C(N)=O)C(C)C)[C@@H](C)CC)[C@@H](C)O) [analog no. 45] |
| 5.48 | 0.45 | Myristoyl-[Nle]ETRTPDINPAWYTGRGIRPVGRF-NH2 (SMILES CCCCCCCCCCCCCC(=O)N[C@@H](CCCC)C(=O)N[C@@H](CCC(=O)O)C(=O)N[C@H](C(=O)N[C@@H](CCCNC(=N)N)C(=O)N[C@H](C(=O)N1CCC[C@H]1C(=O)N[C@@H](CC(=O)O)C(=O)N[C@H](C(=O)N[C@@H](CC(N)=O)C(=O)N1CCC[C@H]1C(=O)N[C@@H](C)C(=O)N[C@@H](Cc1c[nH]c2ccccc12)C(=O)N[C@@H](Cc1ccc(O)cc1)C(=O)N[C@H](C(=O)NCC(=O)N[C@@H](CCCNC(=N)N)C(=O)NCC(=O)N[C@H](C(=O)N[C@@H](CCCNC(=N)N)C(=O)N1CCC[C@H]1C(=O)N[C@H](C(=O)NCC(=O)N[C@@H](CCCNC(=N)N)C(=O)N[C@@H](Cc1ccccc1)C(N)=O)C(C)C)[C@@H](C)CC)[C@@H](C)O)[C@@H](C)CC)[C@@H](C)O)[C@@H](C)O, lipidated shortened PrRP31 analog) [analog no. 47] |
